The values below come from the Immune Epitope Database (IEDB).

Assay [1] has as its target HLA-A*02:01. The assay can be described thus: IEDB peptide-MHC binding, cellular MHC/competitive/fluorescence; ≥ and ≤ were set here for values at or beyond the usual limits of such assays. The following applies: source organism: Homo sapiens.
In the next assay the target is HLA-B*27:04. The assay is described as above. The following applies: source organism: Human herpesvirus 4 strain B95-8.
Another assay has as its target HLA-A*32:15. The assay can be described thus: IEDB peptide-MHC binding, purified MHC/competitive/fluorescence; filed as Kd, often an IC50 or EC50 that approximates it; ≥ and ≤ were set here for values at or beyond the usual limits of such assays.
A further assay concerns the target HLA-B*45:06. The assay is described as above.
For a further assay, the target named is HLA-B*83:01. The assay is described as above.
The target of the next assay is HLA-C*06:02. Described as above.
The next assay has as its target HLA-B*15:42. The description is as above.
The next assay addresses HLA-C*14:02. The assay is described as above.
The target in another assay is HLA-A*03:19. The assay is described as above. The following applies: source organism: Mycobacterium tuberculosis C.
Another assay addresses HLA-B*73:01. The assay can be described thus: IEDB peptide-MHC binding, purified MHC/direct/fluorescence; filed as Kd, often an IC50 or EC50 that approximates it; ≥ and ≤ were set here for values at or beyond the usual limits of such assays. As to conditions: source organism: Marburg virus - Musoke, Kenya, 1980.
The next assay has as its target HLA-B*58:01. The description is as above.
The target in a further assay is HLA-B*48:01. The description is as above. As to conditions: source organism: Marburg virus - Musoke, Kenya, 1980.
The next assay addresses HLA-A*31:01. Described as above.
A further assay addresses HLA-B*07:02. Described as above.
The target in the next assay is HLA-B*27:05. The description is as above.
In another assay the target is HLA-A*01:01. Described as above.
Another assay has as its target HLA-A*11:01. Described as above.
A further assay deals with HLA-A*69:01. The description is as above.
Another assay addresses HLA-B*15:09. The assay is described as above.
For a further assay, the target named is HLA-B*57:01. The assay is described as above. The following applies: source organism: Marburg virus - Musoke, Kenya, 1980.
In the next assay the target is HLA-B*08:02. Described as above. As to conditions: source organism: Orthomarburgvirus marburgense.
A further assay has as its target HLA-B*15:01. The description is as above.
The next assay has as its target HLA-A*68:02. The description is as above. The following applies: source organism: Marburg virus - Musoke, Kenya, 1980.
For another assay, the target named is HLA-B*15:17. The description is as above. As to conditions: source organism: Marburg virus - Musoke, Kenya, 1980.
The target of assay [2] is HLA-A*02:01. Kind of assay: IEDB peptide-MHC binding, purified MHC/competitive/fluorescence; filed as Kd, often an IC50 or EC50 that approximates it; ≥ and ≤ were set here for values at or beyond the usual limits of such assays. The following applies: source organism: Orthomarburgvirus marburgense.
The target of the next assay is HLA-A*26:02. The assay is described as above. The following applies: source organism: Orthomarburgvirus marburgense.
A further assay concerns the target HLA-B*18:01. The description is as above. The following applies: source organism: Orthomarburgvirus marburgense.
The target of a further assay is HLA-A*03:01. Kind of assay: IEDB peptide-MHC binding, purified MHC/direct/fluorescence; filed as Kd, often an IC50 or EC50 that approximates it; ≥ and ≤ were set here for values at or beyond the usual limits of such assays.
The target in the next assay is HLA-A*24:02. The description is as above. As to conditions: source organism: Coxiella burnetii.
The next assay addresses HLA-B*44:02. The description is as above.
For a further assay, the target named is HLA-C*03:03. The description is as above. As to conditions: source organism: Coxiella burnetii Dugway 5J108-111.
In assay [3] the target is HLA-A*02:01. The description is as above.
The target of the next assay is HLA-C*08:02. The assay is described as above. The following applies: source organism: Coxiella burnetii Dugway 5J108-111.
The next assay addresses HLA-B*40:01. Described as above.
A further assay addresses HLA-A*68:23. The assay can be described thus: IEDB peptide-MHC binding, purified MHC/competitive/fluorescence; filed as Kd, often an IC50 or EC50 that approximates it; ≥ and ≤ were set here for values at or beyond the usual limits of such assays. The following applies: source organism: Coxiella burnetii Dugway 5J108-111.
The target of another assay is HLA-A*32:07. Described as above. The following applies: source organism: Coxiella burnetii Dugway 5J108-111.
The target in a further assay is HLA-A*30:01. Kind of assay: IEDB peptide-MHC binding, purified MHC/direct/fluorescence; filed as Kd, often an IC50 or EC50 that approximates it; ≥ and ≤ were set here for values at or beyond the usual limits of such assays. As to conditions: source organism: Escherichia coli O157:H7.
The target in a further assay is HLA-A*26:01. The description is as above. The following applies: source organism: Escherichia coli O157:H7.
The target in a further assay is HLA-A*24:03. Described as above. As to conditions: source organism: Escherichia coli O157:H7.
A further assay deals with HLA-B*08:01. Described as above. As to conditions: source organism: Escherichia coli O157:H7.
Setting [4] is: source organism: Mycobacterium tuberculosis C.
The mark [5] stands for this setting: source organism: Marburg virus - Musoke, Kenya, 1980.
The mark [6] stands for this setting: source organism: Coxiella burnetii.
The mark [7] stands for this setting: source organism: Coxiella burnetii Dugway 5J108-111.
Where [8] appears, read: source organism: Escherichia coli O157:H7.

A value given as a limit tells only on which side of the number the result lay.

In the case of ALVVQVAEA, the IC50 – broadly, the concentration needed to halve the response being measured – in the assay with HLA-A*02:01 [1] came out at 2.58 µM.
As to QRSYVSGVL, the IC50 with HLA-B*27:04 came to 5 µM.
In the case of MVRQMRAAL, the Kd (in general, the concentration at which binding is half-saturated) was 0.356 µM with HLA-A*32:15 (setting [4]); ≥ 5 µM with HLA-B*45:06 (setting [4]); 0.0991 µM with HLA-B*83:01 (setting [4]); 0.526 µM with HLA-C*06:02 (setting [4]); ≥ 5 µM with HLA-B*15:42 (setting [4]); 0.0335 µM with HLA-C*14:02 (setting [4]). This sequence also gave a Kd in the assay with HLA-A*03:19 of 0.591 µM.
In the case of NRWKSWFSY, the dissociation constant (Kd) with HLA-B*73:01 was 0.0098 µM; with HLA-B*58:01 (setting [5]) it was ≥ 20 µM; with HLA-B*48:01, ≥ 20 µM; in the assay with HLA-A*31:01 (setting [5]) it was ≥ 20 µM; with HLA-B*07:02 (setting [5]), ≥ 20 µM; in the assay with HLA-B*27:05 (setting [5]) it was 0.0864 µM. The Kd with HLA-A*01:01 (setting [5]), in the assay with HLA-A*11:01 (setting [5]), in the assay with HLA-A*69:01 (setting [5]), with HLA-B*15:09 (source organism: Orthomarburgvirus marburgense), with HLA-B*57:01 and with HLA-B*08:02 was ≥ 20 µM each time. For the same sequence, the Kd is ≥ 20 µM with HLA-B*15:01 (setting [5]); ≥ 20 µM with HLA-A*68:02; ≥ 20 µM with HLA-B*15:17; 2.54 µM in the assay with HLA-A*02:01 [2]; ≥ 20 µM with HLA-A*26:02; ≥ 20 µM with HLA-B*18:01.
For the sequence MTFPVSLEY, the Kd with HLA-B*58:01 (setting [6]) was 0.0249 µM; with HLA-B*07:02 (setting [6]), ≥ 20 µM; with HLA-A*03:01 (setting [6]), 0.0482 µM; in the assay with HLA-A*24:02 it was ≥ 20 µM; in the assay with HLA-B*27:05 (setting [6]), ≥ 20 µM; in the assay with HLA-A*01:01 (setting [6]), 0.014 µM. In addition, the Kd was ≥ 20 µM with HLA-B*15:09 (source organism: Coxiella burnetii Q321); ≥ 20 µM with HLA-B*44:02 (setting [6]); 0.24 µM with HLA-C*03:03; ≥ 20 µM with HLA-A*02:01 [3] (setting [6]); ≥ 20 µM with HLA-C*08:02; 0.0434 µM in the assay with HLA-B*15:01 (setting [6]). Besides, the Kd with HLA-B*40:01 (setting [6]) was ≥ 20 µM; in the assay with HLA-A*32:15 (setting [7]) it was 0.018 µM; with HLA-A*68:23, ≤ 0.0001 µM; with HLA-B*45:06 (setting [7]) it was ≥ 5 µM; with HLA-B*83:01 (setting [7]), 3.5 µM; with HLA-C*06:02 (setting [7]), 0.0396 µM. For the same sequence, the figures for the Kd with HLA-B*15:42 (setting [7]), with HLA-C*14:02 (setting [7]) and with HLA-A*32:07 were ≥ 5 µM, 0.123 µM and 0.0363 µM, respectively.
As for VTRQIHNPR, the Kd was ≥ 20 µM in the assay with HLA-B*58:01 (setting [8]); 0.00693 µM with HLA-A*30:01; 0.0968 µM with HLA-A*31:01 (setting [8]); ≥ 20 µM with HLA-B*07:02 (setting [8]); 11.6 µM with HLA-A*03:01 (setting [8]); ≥ 20 µM in the assay with HLA-B*27:05 (setting [8]). Also, the Kd is ≥ 20 µM in the assay with HLA-A*01:01 (setting [8]); 1.86 µM with HLA-A*11:01 (setting [8]); ≥ 20 µM with HLA-A*69:01 (setting [8]); ≥ 20 µM in the assay with HLA-A*26:01; ≥ 20 µM with HLA-B*44:02 (setting [8]); ≥ 20 µM in the assay with HLA-A*02:01 [3] (setting [8]). The Kd with HLA-B*15:01 (setting [8]), with HLA-B*40:01 (setting [8]), with HLA-A*24:03 and with HLA-B*08:01 was ≥ 20 µM in each case.
